Numbering of substitutions follows the chain as printed. In names and notes the source's numbering stands. One block for each binder: values may come before it.
Tests used:
Human IL-12 = target: T1, Human IL-12 (human, UniProt P29460 23-328; P29459 23-219); test: SPR, BIACORE T200, 37 degrees C, pH 7.4; antibody captured by anti-human Fc antibody, human IL-12 injected at 5 and 20 nM; 1:1 binding model
T1 construct: also called human Interleukin-12
T1 sequence (looked up) 1: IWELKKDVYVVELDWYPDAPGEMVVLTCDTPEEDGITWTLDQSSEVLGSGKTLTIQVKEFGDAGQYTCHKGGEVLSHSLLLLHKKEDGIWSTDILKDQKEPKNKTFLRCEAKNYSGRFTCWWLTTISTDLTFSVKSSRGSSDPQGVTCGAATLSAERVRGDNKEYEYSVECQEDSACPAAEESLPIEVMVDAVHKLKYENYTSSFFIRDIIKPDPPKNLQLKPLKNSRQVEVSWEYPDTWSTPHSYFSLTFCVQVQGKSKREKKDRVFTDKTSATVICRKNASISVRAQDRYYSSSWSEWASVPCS
T1 sequence (looked up) 2: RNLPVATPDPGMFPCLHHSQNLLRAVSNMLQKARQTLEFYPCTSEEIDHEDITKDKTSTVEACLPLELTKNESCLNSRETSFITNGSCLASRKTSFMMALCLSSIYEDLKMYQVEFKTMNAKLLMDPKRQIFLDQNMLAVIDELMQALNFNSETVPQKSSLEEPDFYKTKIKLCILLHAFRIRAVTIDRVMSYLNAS
Experimental: The affinity of anti-IL12 antibodies binding to human IL-12 at pH 7.4 was determined at 37 degrees C. using BIACORE® T200 instrument (GE Healthcare). […] (GE Healthcare) was immobilized onto all flow cells of a CM4 sensor chip using amine coupling kit (GE Healthcare). All antibodies and analytes were prepared in ACES pH 7.4 containing 20 mM ACES, 150 mM NaCl, 0.05% Tween 20, 0.005% NaN₃. Each antibody was captured onto the sensor surface by anti-human Fc antibody. Antibody capture levels were aimed at 50 resonance unit (RU). Human IL-12 was injected at 5 and 20 nM, followed by dissociation. Sensor surface was regenerated each cycle with 3M MgCl₂.

[1] = target: T2, Human IL-12 receptor (human IL-12Rb1 and IL-12Rb2) (human, UniProt P42701 24-662; Q99665 24-862); test: cell-based or functional assay
T2 sequence (Q99665 24-862, chain 2 of 2, other chains not shown): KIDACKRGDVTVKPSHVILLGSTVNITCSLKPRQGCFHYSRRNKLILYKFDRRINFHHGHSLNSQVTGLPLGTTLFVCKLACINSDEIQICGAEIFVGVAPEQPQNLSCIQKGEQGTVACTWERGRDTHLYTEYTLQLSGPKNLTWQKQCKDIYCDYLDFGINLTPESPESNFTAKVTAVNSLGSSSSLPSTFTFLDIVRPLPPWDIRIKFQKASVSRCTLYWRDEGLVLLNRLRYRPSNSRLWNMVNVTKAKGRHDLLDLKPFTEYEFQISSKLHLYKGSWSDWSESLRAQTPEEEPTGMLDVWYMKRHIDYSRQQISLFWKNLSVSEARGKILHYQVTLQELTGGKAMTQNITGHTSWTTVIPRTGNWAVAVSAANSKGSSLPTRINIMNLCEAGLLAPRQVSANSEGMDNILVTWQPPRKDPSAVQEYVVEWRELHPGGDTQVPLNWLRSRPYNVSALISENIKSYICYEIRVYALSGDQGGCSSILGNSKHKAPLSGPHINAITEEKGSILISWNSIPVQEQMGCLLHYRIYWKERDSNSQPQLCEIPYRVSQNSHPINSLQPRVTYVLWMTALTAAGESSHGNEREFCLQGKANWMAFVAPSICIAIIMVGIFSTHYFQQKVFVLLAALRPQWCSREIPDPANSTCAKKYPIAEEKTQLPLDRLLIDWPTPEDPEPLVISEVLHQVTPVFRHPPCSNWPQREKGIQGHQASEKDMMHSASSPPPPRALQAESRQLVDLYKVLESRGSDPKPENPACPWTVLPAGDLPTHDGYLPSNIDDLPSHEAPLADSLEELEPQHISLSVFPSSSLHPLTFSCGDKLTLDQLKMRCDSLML

[2] = target: T2, Human IL-12 receptor (human IL-12Rb1 …); test: cell-based or functional assay; remark: listed apart in the source
[3] = target: T2, Human IL-12 receptor (human IL-12Rb1 …); test: cell-based or functional assay; remark: listed apart in the source

B1: Anti-IL-12 antibody, Ab1, comprising VH release enhancing mutations (Ab101H89-12aa0054-C8/Ab102L69-SK1) (antibody, V domains shown)
VH: QVQLVQSGAEVKKPGSSVKVSCKASGGTFSDYYLHWSRQAPGQGLEWMGWIDPENGDTEYAPKFQGRVTITADESTSTAYMELSSLRSEDTAVYYCARNKELRYIDVWGQGTLVTVSS
VL: DIVMTQSPLSLPVTPGEPASISCRASQSISINLHWYQQKPGQAPRQLIAFASQSISGVPSRFSGSGSGTDFTLTISSLQPEDFATYYCQQSNSFPLTFGQGTKVEIKR
notes: Homodimer of a light and a heavy chain; Mutations V37S, F100aI / L46Q, Y49A; also called Ab101H89/Ab102L69
Kd (Human IL-12): 6.52 nM

B2: Anti-IL-12 antibody Ab1, variable region variant Ab101H89/Ab102L994 (antibody, V domains shown)
VH: B1 VH
VL: B1 VL with N92Y
notes: Mutations V37S, F100aI / L46Q, Y49A, N92Y
Kd (Human IL-12): 3.51 nM

B4: Anti-IL-12 antibody Ab1, variable region variant Ab101H725/Ab102L1087 (antibody, V domains shown)
VH: B1 VH with G56Q, N99T
VL: B1 VL with A25S, Q27D
notes: Mutations V37S, G55Q, N95T, F100aI / A25S, Q27D, L46Q, Y49A
Kd (Human IL-12): 1.27 nM

More lines, now with the values ahead:

Kd (Human IL-12): 1.45 nM | kon (Human IL-12): 1.9e+06 M⁻¹ s⁻¹
B3: Anti-IL-12 antibody Ab1, variable region variant Ab101H/Ab102L (antibody, V domains shown)
VH: B1 VH with S37V, I105F
VL: B1 VL with Q46L, A49Y

EC50 (read off the curve), IL-12 luciferase reporter assay (without protease) [left graph] [1]: ~0.1 nM | EC50 (read off the curve), IL-12 luciferase reporter assay (+ MTSP1) [2]: ~0.2 nM | EC50 (read off the curve), IL-12 luciferase reporter assay (without protease) [2]: ~0.2 nM | EC50 (read off the curve), IL-12 luciferase reporter assay (+ MTSP1) [all three graphs] [3]: ~0.2 nM | EC50 (read off the curve), IL-12 luciferase reporter assay (without protease) [all three graphs] [3]: ~0.2 nM
B5: hIL12_His tag (ligand)
chain 1: T1 sequence (looked up) 1
chain 2: T1 sequence (looked up) 2

— patent US20240270806A1 (Chugai, published 2024)
